Assay results as given in publication PMC7827474, “DnaJ Proteins Regulate WUS Expression in Shoot Apical Meristem of Arabidopsis”.

Assays:
[1] = target: T1, MBP:WUS (Arabidopsis thaliana, UniProt Q9SB92 1-292); assay: EMSA; EMSA: 10 mM HEPES pH 7.8, 20 mM KCl, 1 mM MgCl2, 21 mM DTT (so in the source), 7.5% glycerol, 0.5% Triton-100, 300 ng carrier DNA, 0.02% BSA, 10 uL, 22 C, 30 min; 8%; conditions: protein: recombinant; tags: MBP; chain copies: 2; label: Texas Red (3' end per Methods); blunt
T1 sequence: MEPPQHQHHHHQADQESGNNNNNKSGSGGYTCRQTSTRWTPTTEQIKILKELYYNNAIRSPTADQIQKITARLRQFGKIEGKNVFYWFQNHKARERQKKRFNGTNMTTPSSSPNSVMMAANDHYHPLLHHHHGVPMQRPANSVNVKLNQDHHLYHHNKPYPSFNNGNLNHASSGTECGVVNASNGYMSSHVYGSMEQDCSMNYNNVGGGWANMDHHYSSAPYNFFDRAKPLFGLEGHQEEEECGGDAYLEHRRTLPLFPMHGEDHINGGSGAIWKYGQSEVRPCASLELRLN

[2] = target: T2, MBP:WUS;MBP:SDJ3 (Arabidopsis thaliana;Arabidopsis …, UniProt Q9SB92;F4I0F5 1-292;1-797, |); assay: EMSA; more efficient than WUS alone; EMSA: 10 mM HEPES pH 7.8, 20 mM KCl, 1 mM MgCl2, 21 mM DTT (so in the source), 7.5% glycerol, 0.5% Triton-100, 300 ng carrier DNA, 0.02% BSA, 10 uL, 22 C, 30 min; 8%; conditions: protein: recombinant;recombinant; tags: MBP;MBP; label: Texas Red (3' end per Methods); blunt
T2 sequence 1: T1 sequence
T2 sequence 2: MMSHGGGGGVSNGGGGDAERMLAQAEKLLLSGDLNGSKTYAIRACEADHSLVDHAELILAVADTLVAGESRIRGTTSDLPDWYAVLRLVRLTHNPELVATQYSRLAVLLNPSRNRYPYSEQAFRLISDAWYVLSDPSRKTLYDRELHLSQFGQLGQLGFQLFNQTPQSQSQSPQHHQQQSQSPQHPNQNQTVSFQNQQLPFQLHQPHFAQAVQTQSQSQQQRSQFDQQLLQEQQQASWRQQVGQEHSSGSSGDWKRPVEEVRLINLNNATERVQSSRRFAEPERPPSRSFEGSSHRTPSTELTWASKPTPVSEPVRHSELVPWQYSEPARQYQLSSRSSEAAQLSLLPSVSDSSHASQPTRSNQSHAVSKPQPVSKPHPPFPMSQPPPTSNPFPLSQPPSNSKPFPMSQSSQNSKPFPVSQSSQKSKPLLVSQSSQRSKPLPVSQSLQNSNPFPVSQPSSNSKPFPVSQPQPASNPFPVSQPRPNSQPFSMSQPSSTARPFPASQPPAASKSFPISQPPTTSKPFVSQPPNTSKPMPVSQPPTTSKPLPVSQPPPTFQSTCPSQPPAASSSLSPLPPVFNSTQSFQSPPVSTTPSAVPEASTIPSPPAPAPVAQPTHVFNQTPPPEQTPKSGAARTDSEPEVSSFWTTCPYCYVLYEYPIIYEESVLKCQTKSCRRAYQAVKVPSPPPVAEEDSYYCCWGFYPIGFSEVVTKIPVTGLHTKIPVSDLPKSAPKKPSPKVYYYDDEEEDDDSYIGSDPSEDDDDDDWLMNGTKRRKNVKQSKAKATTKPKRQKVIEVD

[3] = target: T3, MBP:WUS;MBP:At5g09540 (Arabidopsis thaliana;Arabidopsis …, UniProt Q9SB92;A2RVL3 1-292;1-280, |); assay: as above; conditions: protein: recombinant;recombinant; tags: MBP;MBP; label: Texas Red (3' end per Methods); blunt
T3 sequence 1: T1 sequence
T3 sequence 2: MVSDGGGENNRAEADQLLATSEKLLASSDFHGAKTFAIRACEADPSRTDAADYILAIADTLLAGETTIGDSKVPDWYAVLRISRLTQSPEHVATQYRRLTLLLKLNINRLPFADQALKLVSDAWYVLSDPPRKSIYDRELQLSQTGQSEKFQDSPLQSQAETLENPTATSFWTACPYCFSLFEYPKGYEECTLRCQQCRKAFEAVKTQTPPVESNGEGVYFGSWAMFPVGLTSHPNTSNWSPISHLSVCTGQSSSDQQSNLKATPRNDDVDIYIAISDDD

Measured: binding result

B1: WUS promoter probe (pWUS) (dsDNA)
DNA 1: CTAGAATGAATAATAAAAAAAGTGAAAACCGTTTGATCATAA
DNA 2: TTATGATCAAACGGTTTTCACTTTTTTTATTATTCATTCTAG
binds: all assays above
